Experimental data as given in the Immune Epitope Database (IEDB).

How the values were obtained:
Assay in all cases: IEDB peptide-MHC binding, purified MHC/competitive/radioactivity; ≥ and ≤ were set here for values at or beyond the usual limits of such assays
HLA-A*02:03 = target: HLA-A*02:03
HLA-A*02:06 = target: HLA-A*02:06
HLA-A*02:01 = target: HLA-A*02:01
HLA-A*02:02 = target: HLA-A*02:02
HLA-A*68:02 = target: HLA-A*68:02
[1] = source organism: Influenza A virus
[2] = source organism: Vaccinia virus WR
[3] = source organism: Mammarenavirus machupoense
[4] = source organism: Hepacivirus hominis

Sequence: MQALQLLLEV
- IC50 (HLA-A*02:03; [1]): 13 nM
- IC50 (HLA-A*02:06; [1]): 48 nM
- IC50 (HLA-A*02:01; [1]): 67 nM
- IC50 (HLA-A*02:02; [1]): 147 nM
- IC50 (HLA-A*68:02; [1]): 615 nM

Sequence: VIIMAINVFT
- IC50 (HLA-A*02:03; [2]): 820 nM
- IC50 (HLA-A*02:06; [2]): 674 nM
- IC50 (HLA-A*02:01; [2]): 641 nM
- IC50 (HLA-A*02:02; [2]): 320 nM
- IC50 (HLA-A*68:02; [2]): 740 nM

Sequence: CLDAGINYV
- IC50 (HLA-A*02:03; source organism: SARS-CoV1): 6.4 nM
- IC50 (HLA-A*02:06; source organism: SARS-CoV1): 1.6 nM
- IC50 (HLA-A*02:01; source organism: SARS-CoV1): 0.91 nM
- IC50 (HLA-A*02:02; source organism: SARS-CoV1): 0.57 nM
- IC50 (HLA-A*68:02; source organism: SARS-CoV1): 79 nM

Sequence: MLLTFLTSLL
- IC50 (HLA-A*02:03; source organism: SARS-CoV1): 7.3 nM
- IC50 (HLA-A*02:06; source organism: SARS-CoV1): 25 nM
- IC50 (HLA-A*02:01; source organism: SARS-CoV1): 11 nM
- IC50 (HLA-A*02:02; source organism: SARS-CoV1): 0.73 nM
- IC50 (HLA-A*68:02; source organism: SARS-CoV1): 299 nM

Sequence: RAKRKPAMST
- IC50 (HLA-A*02:03; [2]): 1380 nM
- IC50 (HLA-A*02:06; [2]): 1550 nM
- IC50 (HLA-A*02:01; [2]): 785 nM
- IC50 (HLA-A*02:02; [2]): 977 nM
- IC50 (HLA-A*68:02; [2]): 551 nM

Sequence: NLETYTRPEI
- IC50 (HLA-A*02:03; [2]): 1500 nM
- IC50 (HLA-A*02:06; [2]): 636 nM
- IC50 (HLA-A*02:01; [2]): 1220 nM
- IC50 (HLA-A*02:02; [2]): 539 nM
- IC50 (HLA-A*68:02; [2]): 2080 nM

Sequence: IICEDAMYYA
- IC50 (HLA-A*02:03; [2]): 108 nM
- IC50 (HLA-A*02:06; [2]): 8.8 nM
- IC50 (HLA-A*02:01; [2]): 23 nM
- IC50 (HLA-A*02:02; [2]): 24 nM
- IC50 (HLA-A*68:02; [2]): 746 nM

Sequence: NTVGMSIVCI
- IC50 (HLA-A*02:03; [2]): 1540 nM
- IC50 (HLA-A*02:06; [2]): 1210 nM
- IC50 (HLA-A*02:01; [2]): 3260 nM
- IC50 (HLA-A*02:02; [2]): 3020 nM
- IC50 (HLA-A*68:02; [2]): 198 nM

Sequence: WLLWPVTLA
- IC50 (HLA-A*02:03; source organism: SARS-CoV1): 1.2 nM
- IC50 (HLA-A*02:06; source organism: SARS-CoV1): 17 nM
- IC50 (HLA-A*02:01; source organism: SARS-CoV1): 6.8 nM
- IC50 (HLA-A*02:02; source organism: SARS-CoV1): 12 nM
- IC50 (HLA-A*68:02; source organism: SARS-CoV1): 151 nM

Sequence: ALYKGFQFI
- IC50 (HLA-A*02:03; source organism: SARS-CoV1): 3.3 nM
- IC50 (HLA-A*02:06; source organism: SARS-CoV1): 2 nM
- IC50 (HLA-A*02:01; source organism: SARS-CoV1): 5.2 nM
- IC50 (HLA-A*02:02; source organism: SARS-CoV1): 0.53 nM
- IC50 (HLA-A*68:02; source organism: SARS-CoV1): 4450 nM

Sequence: ALNIALVAV
- IC50 (HLA-A*02:03; [3]): 4.5 nM
- IC50 (HLA-A*02:06; [3]): 371 nM
- IC50 (HLA-A*02:01; [3]): 79 nM
- IC50 (HLA-A*02:02; [3]): 15 nM
- IC50 (HLA-A*68:02; [3]): 3340 nM

Sequence: FVYVSVMNFI
- IC50 (HLA-A*02:03; [2]): 18 nM
- IC50 (HLA-A*02:06; [2]): 7.5 nM
- IC50 (HLA-A*02:01; [2]): 704 nM
- IC50 (HLA-A*02:02; [2]): 76 nM
- IC50 (HLA-A*68:02; [2]): 57 nM

Sequence: VVISVIFYFI
- IC50 (HLA-A*02:03; [2]): 755 nM
- IC50 (HLA-A*02:06; [2]): 542 nM
- IC50 (HLA-A*02:01; [2]): 616 nM
- IC50 (HLA-A*02:02; [2]): 239 nM
- IC50 (HLA-A*68:02; [2]): 583 nM

Sequence: SISEINEWL
- IC50 (HLA-A*02:03; [2]): 1.8 nM
- IC50 (HLA-A*02:06; [2]): 6.3 nM
- IC50 (HLA-A*02:01; [2]): 1.9 nM
- IC50 (HLA-A*02:02; [2]): 0.13 nM
- IC50 (HLA-A*68:02; [2]): 1.3 nM

Sequence: PTSETMYLTM
- IC50 (HLA-A*02:03; [2]): 191 nM
- IC50 (HLA-A*02:06; [2]): 915 nM
- IC50 (HLA-A*02:01; [2]): 529 nM
- IC50 (HLA-A*02:02; [2]): 862 nM
- IC50 (HLA-A*68:02; [2]): 4210 nM

Sequence: ILISLINSLV
- IC50 (HLA-A*02:03; [2]): 3.1 nM
- IC50 (HLA-A*02:06; [2]): 151 nM
- IC50 (HLA-A*02:01; [2]): 83 nM
- IC50 (HLA-A*02:02; [2]): 23 nM
- IC50 (HLA-A*68:02; [2]): 141 nM

Sequence: YQSFLFWFL
- IC50 (HLA-A*02:03; [2]): 2.5 nM
- IC50 (HLA-A*02:06; [2]): 40 nM
- IC50 (HLA-A*02:01; [2]): 0.76 nM
- IC50 (HLA-A*02:02; [2]): 0.38 nM
- IC50 (HLA-A*68:02; [2]): 87 nM

Sequence: TLPELNLSL
- IC50 (HLA-A*02:03; [2]): 23 nM
- IC50 (HLA-A*02:06; [2]): 802 nM
- IC50 (HLA-A*02:01; [2]): 62 nM
- IC50 (HLA-A*02:02; [2]): 135 nM
- IC50 (HLA-A*68:02; [2]): 309 nM

Sequence: NVFISPASI
- IC50 (HLA-A*02:03; [2]): 0.73 nM
- IC50 (HLA-A*02:06; [2]): 660 nM
- IC50 (HLA-A*02:01; [2]): 136 nM
- IC50 (HLA-A*02:02; [2]): 202 nM
- IC50 (HLA-A*68:02; [2]): 1.9 nM

Sequence: ITTLLNETA
- IC50 (HLA-A*02:03; [2]): 936 nM
- IC50 (HLA-A*02:06; [2]): 596 nM
- IC50 (HLA-A*02:01; [2]): 635 nM
- IC50 (HLA-A*02:02; [2]): 414 nM
- IC50 (HLA-A*68:02; [2]): 70 nM

Sequence: RTMPNESRV
- IC50 (HLA-A*02:03; [2]): 100 nM
- IC50 (HLA-A*02:06; [2]): 155 nM
- IC50 (HLA-A*02:01; [2]): 1510 nM
- IC50 (HLA-A*02:02; [2]): 140 nM
- IC50 (HLA-A*68:02; [2]): 14 nM

Sequence: FLCLFLLPSL
- IC50 (HLA-A*02:03; source organism: SARS-CoV1): 2.9 nM
- IC50 (HLA-A*02:06; source organism: SARS-CoV1): 0.37 nM
- IC50 (HLA-A*02:01; source organism: SARS-CoV1): 0.33 nM
- IC50 (HLA-A*02:02; source organism: SARS-CoV1): 0.53 nM
- IC50 (HLA-A*68:02; source organism: SARS-CoV1): 729 nM

Sequence: LLALLSCISV
- IC50 (HLA-A*02:03; [4]): 1.3 nM
- IC50 (HLA-A*02:06; [4]): 16 nM
- IC50 (HLA-A*02:01; [4]): 2.4 nM
- IC50 (HLA-A*02:02; [4]): 0.77 nM
- IC50 (HLA-A*68:02; [4]): 2450 nM

Sequence: IIMAINVFT
- IC50 (HLA-A*02:03; [2]): 180 nM
- IC50 (HLA-A*02:06; [2]): 10 nM
- IC50 (HLA-A*02:01; [2]): 27 nM
- IC50 (HLA-A*02:02; [2]): 39 nM
- IC50 (HLA-A*68:02; [2]): 84 nM

Sequence: YVVVHGYFT
- IC50 (HLA-A*02:03; source organism: SARS-CoV1): 792 nM
- IC50 (HLA-A*02:06; source organism: SARS-CoV1): 171 nM
- IC50 (HLA-A*02:01; source organism: SARS-CoV1): 1070 nM
- IC50 (HLA-A*02:02; source organism: SARS-CoV1): 342 nM
- IC50 (HLA-A*68:02; source organism: SARS-CoV1): 212 nM

Sequence: KMAVEVGSI
- IC50 (HLA-A*02:03; [2]): 2.8 nM
- IC50 (HLA-A*02:06; [2]): 119 nM
- IC50 (HLA-A*02:01; [2]): 155 nM
- IC50 (HLA-A*02:02; [2]): 31 nM
- IC50 (HLA-A*68:02; [2]): 806 nM

Sequence: WLMWFIISIV
- IC50 (HLA-A*02:03; source organism: SARS-CoV1): 4.7 nM
- IC50 (HLA-A*02:06; source organism: SARS-CoV1): 107 nM
- IC50 (HLA-A*02:01; source organism: SARS-CoV1): 33 nM
- IC50 (HLA-A*02:02; source organism: SARS-CoV1): 246 nM
- IC50 (HLA-A*68:02; source organism: SARS-CoV1): 2890 nM

Sequence: IVNSVLLFL
- IC50 (HLA-A*02:03; source organism: SARS-CoV1): 179 nM
- IC50 (HLA-A*02:06; source organism: SARS-CoV1): 30 nM
- IC50 (HLA-A*02:01; source organism: SARS-CoV1): 68 nM
- IC50 (HLA-A*02:02; source organism: SARS-CoV1): 7.1 nM
- IC50 (HLA-A*68:02; source organism: SARS-CoV1): 2090 nM

Sequence: MLNRVQILM
- IC50 (HLA-A*02:03; [2]): 27 nM
- IC50 (HLA-A*02:06; [2]): 2560 nM
- IC50 (HLA-A*02:01; [2]): 28 nM
- IC50 (HLA-A*02:02; [2]): 4.8 nM
- IC50 (HLA-A*68:02; [2]): 4200 nM

Sequence: IAVSVYGAI
- IC50 (HLA-A*02:03; [2]): 124 nM
- IC50 (HLA-A*02:06; [2]): 1100 nM
- IC50 (HLA-A*02:01; [2]): 884 nM
- IC50 (HLA-A*02:02; [2]): 1480 nM
- IC50 (HLA-A*68:02; [2]): 7.8 nM

Sequence: YVILKDPRI
- IC50 (HLA-A*02:03; [2]): 203 nM
- IC50 (HLA-A*02:06; [2]): 12 nM
- IC50 (HLA-A*02:01; [2]): 778 nM
- IC50 (HLA-A*02:02; [2]): 1550 nM
- IC50 (HLA-A*68:02; [2]): 847 nM

Sequence: KASTISWMM
- IC50 (HLA-A*02:03; [2]): 556 nM
- IC50 (HLA-A*02:06; [2]): 797 nM
- IC50 (HLA-A*02:01; [2]): 1410 nM
- IC50 (HLA-A*02:02; [2]): 429 nM
- IC50 (HLA-A*68:02; [2]): 2940 nM

Sequence: TISGNIYSA
- IC50 (HLA-A*02:03; [2]): 19 nM
- IC50 (HLA-A*02:06; [2]): 179 nM
- IC50 (HLA-A*02:01; [2]): 207 nM
- IC50 (HLA-A*02:02; [2]): 85 nM
- IC50 (HLA-A*68:02; [2]): 11 nM

Sequence: LTTVFIKYV
- IC50 (HLA-A*02:03; [2]): 676 nM
- IC50 (HLA-A*02:06; [2]): 130 nM
- IC50 (HLA-A*02:01; [2]): 1060 nM
- IC50 (HLA-A*02:02; [2]): 3640 nM
- IC50 (HLA-A*68:02; [2]): 330 nM

Sequence: ALVSDCAST
- IC50 (HLA-A*02:03; [2]): 31 nM
- IC50 (HLA-A*02:06; [2]): 311 nM
- IC50 (HLA-A*02:01; [2]): 115 nM
- IC50 (HLA-A*02:02; [2]): 701 nM
- IC50 (HLA-A*68:02; [2]): 771 nM
